Laboratory results: patent US4748122A, “2,5-diketo-D-gluconic acid reductase” (Shionogi & Co., Ltd., priority 1983, dated 1988)

Substrate: O=C(O)C(=O)[C@@H](O)[C@H](O)C(=O)CO
Experiment: Spectrophotometric enzymatic activity (decrease in absorption at 340 nm), purified enzyme solution of Example 1
Format: biochemical, Corynebacterium sp. No. 20A-77 mutant (FERM-BP 108)
Conditions: other: varying concentrations of Ca-25DKG, 0.1M TB pH 7, 30° C.

B1: 25DKG-Rase (Corynebacterium sp. SHS752001) (protein)
chain: PNIPTISLNDGRPFAEPGLGTYNLRGDEGVAAMVAAIDSGYRLLDTAVNYENESEVGRAVRASSVDRDELIVASKIPGRQHGRAEAVDSIRGSLDRLGLDVIDLQLIHWPNPSVGRWLDTWRGMIDAREAGLVRSIGVSNFTEPMLKTLIDETGVTPAVNQVELHPYFPQAALRAFHDEHGIRTESWSPLARRSELLTEQLLQELAVVYGVTPTQVVLRWHVQLGSTPIPKSADPDRQRENADVFGFALTADQVDAISGLERGRLWDGDPDTHEEM
notes: The enzyme is an intracellular enzyme extracted from the cells of the 2KLG producing strain; made in house; host or cells: natural producer Corynebacterium sp; No. 20A-77 mutant FERM-BP 108, enzyme purified from sonicated cells; not recombinant
B1 gave a Km of 1800 ± 1000 µM.
